This test deals with HLA-A*02:01 (Homo sapiens, UniProt P04439, D140Y/D185E/D98H/E176V/E277Q/G131W/G231S/I119V/I121R/I166T/I218V/L300P/L318F/N151K/N90K/P208A/P217A/Q86G/Q94H/R138H/R169H/T345S). In words: MHC binding assay (UV-ligand exchange, β2m ELISA, peptide exchange yield). Conditions: binding to HLA-A*02:01 ranged by peptide exchange yield (UV-ligand exchange, β2m ELISA). An excerpt:
Candidate peptides for T cell based therapies according to the present invention were further tested for their MHC binding capacity (affinity). The individual peptide-MHC complexes were produced by UV-ligand exchange, where a UV-sensitive peptide is cleaved upon UV-irradiation, and exchanged with the peptide of interest as analyzed. Only peptide candidates that can effectively bind and stabilize the peptide-receptive MHC molecules prevent dissociation of the MHC complexes. To determine the yield of the exchange reaction, an ELISA was performed based on the detection of the light chain (β2 m) of stabilized MHC complexes. The assay was performed as generally described in Rodenko et al. (Rodenko et al., 2006).
96 well MAXISorp plates (NUNC) were coated over night with 2 μg/ml streptavidin in PBS at room temperature, washed 4× and blocked forth at 37° C. in 2% BSA containing blocking buffer. Refolded HLA-A*02:01/MLA-001 monomers served as standards, covering the range of 15-500 ng/ml. Peptide-MHC monomers of the UV-exchange reaction were diluted 100 fold in blocking buffer. Samples were incubated for 1 h at 37° C., washed four times, incubated with 2 ug/ml HRP conjugated anti-β2 m for 1 h at 37° C., washed again and detected with TMB solution that is stopped with […]. Absorption was measured at 450 nm. Candidate peptides that show a high exchange yield (preferably higher than 50%, most preferred higher than 75%) are generally preferred for a generation and production of antibodies or fragments thereof, and/or T cell receptors or fragments thereof, as they show sufficient avidity to the MHC molecules and prevent dissociation of the MHC complexes.
Regarding “92 (ALLDEQQVNVLL; listed as Homo sapiens) [compound 92]”, the Peptide exchange entry is recorded as “+++ (>50 = +++)”.

With “93 (LLDLIQTKV; listed as Homo sapiens) [compound 93]”, the Peptide exchange result is on record as “+++ (>50 = +++)”. On to “94 (ALADGVPVAL; listed as Homo sapiens) [compound 94]”, for which the Peptide exchange result was “+++ (>50 = +++)”. For the substance “95 (YLIGQHVTA; listed as Homo sapiens) [compound 95]”, the Peptide exchange entry is listed as “++++ (>75% = ++++)”.

Turning to “96 (KLTNGIWVL; listed as Homo sapiens) [compound 96]”, the Peptide exchange result is reported as “+++ (>50 = +++)”.

For the substance “97 (TVGPGLLGV; listed as Homo sapiens) [compound 97]”, the Peptide exchange result is “+++ (>50 = +++)”. Take “98 (YLIGLDPENLAL; listed as Homo sapiens) [compound 98]”: the Peptide exchange entry is listed as “+++ (>50 = +++)”. For the substance “99 (ALIGDDVGL; listed as Homo sapiens) [compound 99]”, the Peptide exchange entry is recorded as “+++ (>50 = +++)”. Take “100 (SLQSFIHGV; listed as Homo sapiens) [compound 100]”: the Peptide exchange entry is reported as “+++ (>50 = +++)”. “101 (ILDEMRAQL; listed as Homo sapiens) [compound 101]”: the Peptide exchange result is “+++ (>50 = +++)”.

“102 (GLYEGLDWL; listed as Homo sapiens) [compound 102]”: the Peptide exchange entry is “+++ (>50 = +++)”. Consider “103 (GLYSGEVLV; listed as Homo sapiens) [compound 103]”, for which the Peptide exchange result is “++++ (>75% = ++++)”. In the case of “105 (TLFPSKIGV; listed as Homo sapiens) [compound 105]”, the Peptide exchange result is on record as “+++ (>50 = +++)”. Consider “106 (ILLDTPLFL; listed as Homo sapiens) [compound 106]”, for which the Peptide exchange result is recorded as “+++ (>50 = +++)”. Take “107 (LTLAKLEKV; listed as Homo sapiens) [compound 107]”: the Peptide exchange result is reported as “++ (>20% = ++)”. In the case of “108 (YLDPNQRDL; listed as Homo sapiens) [compound 108]”, the Peptide exchange entry is listed as “+++ (>50 = +++)”. With “109 (RLIDDMVAQA; listed as Homo sapiens) [compound 109]” the entry was “+++ (>50 = +++)”; with “110 (VLFNIDGQGNHV; listed as Homo sapiens) [compound 110]”, “+++ (>50 = +++)”. With “112 (YLDPSLNSL; listed as Homo sapiens) [compound 112]”, the Peptide exchange result is “+++ (>50 = +++)”. As to “113 (FVFEPPPGV; listed as Homo sapiens) [compound 113]”, the Peptide exchange result was “++++ (>75% = ++++)”.

On to “115 (SLLDFERSL; listed as Homo sapiens) [compound 115]”, for which the Peptide exchange result was “+++ (>50 = +++)”. The entry for “116 (QLAWFDTDL; listed as Homo sapiens) [compound 116]” is “+++ (>50 = +++)”; for “117 (YMLDIFHEVL; listed as Homo sapiens) [compound 117]” it is “+++ (>50 = +++)”; for “118 (RLLDFPTLLV; listed as Homo sapiens) [compound 118]” it is “+++ (>50 = +++)”. As for “119 (SLDEKQNLV; listed as Homo sapiens) [compound 119]”, the Peptide exchange entry is listed as “+++ (>50 = +++)”. With “120 (IIIPEIQKV; listed as Homo sapiens) [compound 120]” the entry was “+++ (>50 = +++)”; with “121 (QLQGYLRSV; listed as Homo sapiens) [compound 121]”, “+++ (>50 = +++)”. Consider “122 (ILEPSLYTV; listed as Homo sapiens) [compound 122]”, for which the Peptide exchange result is on record as “++++ (>75% = ++++)”. Consider “123 (NLAGVYSEV; listed as Homo sapiens) [compound 123]”, for which the Peptide exchange entry is given as “++++ (>75% = ++++)”.

Regarding “124 (QIDGTLSTI; listed as Homo sapiens) [compound 124]”, the Peptide exchange result is listed as “+++ (>50 = +++)”.

“127 (KLNATNIEL; listed as Homo sapiens) [compound 127]”: the Peptide exchange entry was “+++ (>50 = +++)”. For “128 (KLWGQSIQL; listed as Homo sapiens) [compound 128]”, the Peptide exchange result is on record as “++++ (>75% = ++++)”. As for “129 (YLEPKLTQV; listed as Homo sapiens) [compound 129]”, the Peptide exchange result is “+++ (>50 = +++)”. With “130 (TLTSKLYSL; listed as Homo sapiens) [compound 130]”, the Peptide exchange entry was “++++ (>75% = ++++)”. For the substance “131 (ILTSIQSLL; listed as Homo sapiens) [compound 131]”, the Peptide exchange result was “++++ (>75% = ++++)”. The entry for “132 (YILEGEPGKV; listed as Homo sapiens) [compound 132]” is “++++ (>75% = ++++)”; for “133 (GLDPLGYEIQL; listed as Homo sapiens) [compound 133]” it is “++++ (>75% = ++++)”. For the substance “134 (IVAPGTFEV; listed as Homo sapiens) [compound 134]”, the Peptide exchange entry is recorded as “+++ (>50 = +++)”.

Turning to “135 (FLLPLIIVL; listed as Homo sapiens) [compound 135]”, the Peptide exchange entry was “+++ (>50 = +++)”. For the substance “136 (GLSEPIFQL; listed as Homo sapiens) [compound 136]”, the Peptide exchange entry is “+++ (>50 = +++)”. The entry for “137 (ALFPHLLQPVL; listed as Homo sapiens) [compound 137]” is “++++ (>75% = ++++)”; for “138 (YLTNEGIQYL; listed as Homo sapiens) [compound 138]” it is “+++ (>50 = +++)”; for “139 (LLYPTEITV; listed as Homo sapiens) [compound 139]” it is “+++ (>50 = +++)”. The entry for “140 (ALLDGRVQL; listed as Homo sapiens) [compound 140]” is “++++ (>75% = ++++)”; for “141 (SMFGAGLTV; listed as Homo sapiens) [compound 141]” it is “++++ (>75% = ++++)”. For “142 (FLGENISNFL; listed as Homo sapiens) [compound 142]”, the Peptide exchange entry was “+++ (>50 = +++)”. The entry for “143 (TLVTGLASV; listed as Homo sapiens) [compound 143]” is “+++ (>50 = +++)”.

As for “144 (YLAGEAPTL; listed as Homo sapiens) [compound 144]”, the Peptide exchange result was “+++ (>50 = +++)”.

With “145 (ALYPGQLVQL; listed as Homo sapiens) [compound 145]”, the Peptide exchange result was “+++ (>50 = +++)”. “147 (QMLELITRL; listed as Homo sapiens) [compound 147]”: the Peptide exchange entry is “+++ (>50 = +++)”.

The values are drawn from patent US12084522B2, “Peptides, combination of peptides, and cell based medicaments for use in immunotherapy against urinary bladder cancer and other cancers” (Immatics Biotechnologies GmbH, priority 2016, dated 2024).
